Assay results reported in US7132258 (UNIVERSITY OF MASSACHUSETTS, dated 2006).

B1: Gal4 DBD fusion of full-length hRXRα (receptor, UniProt P04386 1-147, looked up)
chain: MKLLSSIEQACDICRLKKLKCSKEKPKCAKCLKNNWECRYSPKTKRSPLTRAHLTEVESRLERLEQLFLLIFPREDLDMILKMDSLQDIKALLTGLFVQDNVNKDAVTDRLASVETDMPLTLRQHRISATSSSEESSNKGQRQLTVSMDTKHFLPLDFSTQVNSSLTSPTGRGSMAAPSLHPSLGPGIGSPGQLHSPISTLSSPINGMGPPFSVISSPMGPHSMSVPTTPTLGFSTGSPQLSSPMNPVSSSEDIKPPLGLNGVLKVPAHPSGNMASFTKHICAICGDRSSGKHYGVYSCEGCKGFFKRTVRKDLTYTCRDNKDCLIDKRQRNRCQYCRYQKCLAMGMKREAVQEERQRGKDRNENEVESTSSANEDMPVERILEAELAVEPKTETYVEANMGLNPSSPNDPVTNICQAADKQLFTLVEWAKRIPHFSELPLDDQVILLRAGWNELLIASFSHRSIAVKDGILLATGLHVHRNSAHSAGVGAIFDRVLTELVSKMRDMQMDKTELGCLRAIVLFNPDSKGLSNPAEVEALREKVYASLEAYCKHKYPEQPGRFAKLLLRLPALRSIGLKCLEHLFFFKLIGDTPIDTFLMEMLEAPHQMT
notes: domain: Gal4 DBD;mature
B2: RAC3 amino acids 401-624 as GAL4 DBD fusion (pCMX-Gal) (other)
chain: MKLLSSIEQACDICRLKKLKCSKEKPKCAKCLKNNWECRYSPKTKRSPLTRAHLTEVESRLERLEQLFLLIFPREDLDMILKMDSLQDIKALLTGLFVQDNVNKDAVTDRLASVETDMPLTLRQHRISATSSSEESSNKGQRQLTVSMSMSPNQGLQMPSSRAYGLADPSTTGQMSGARYGGSSNIASLTPGPGMQSPSSYQNNNYGLNMSSPPHGSPGLAPNQQNIMISPRNRGSPKIASHQFSPVAGVHSPMASSGNTGNHSFSSSSLSALQAISEGVGTSLLSTLSSPGPKLDNSPNMNITQPSKVSNQDSKSPLGFYCDQNPVESSMCQSNSRDHLSDKESKESSVEGAENQRGPLESKGHKKLLQL
notes: domain: GAL4 DBD
B3: VDR364* (LBD of hVDR truncated at amino acid 364) as Gal4 DBD fusion (receptor, UniProt P04386 1-147, looked up)
chain: MKLLSSIEQACDICRLKKLKCSKEKPKCAKCLKNNWECRYSPKTKRSPLTRAHLTEVESRLERLEQLFLLIFPREDLDMILKMDSLQDIKALLTGLFVQDNVNKDAVTDRLASVETDMPLTLRQHRISATSSSEESSNKGQRQLTVSMKEFILTDEEVQRKREMILKRKEEEALKDSLRPKLSEEQQRIIAILLDAHHKTYDPTYSDFCQFRPPVRVNDGGGSHPSRPNSRHTPSFSGDSSSSCSDHCITSSDMMDSSSFSNLDLSEEDSDDPSVTLELSQLSMLPHLADLVSYSIQKVIGFAKMIPGFRDLTSEDQIVLLKSSAIEVIMLRSNESFTMDDMSWTCGNQDYKYRVSDVTKAGHSLELIEPLIKFQVGLKKLNLHEEEHVLLMAICIVSPDRPGVQDAALIEAIQDRLSNTLQ
notes: domain: Gal4 DBD;domain: LBD of hVDR truncated at amino acid 364
B4: RAC3 amino acids 401-695 as GAL4 DBD fusion (pCMX-Gal) (other)
chain: MKLLSSIEQACDICRLKKLKCSKEKPKCAKCLKNNWECRYSPKTKRSPLTRAHLTEVESRLERLEQLFLLIFPREDLDMILKMDSLQDIKALLTGLFVQDNVNKDAVTDRLASVETDMPLTLRQHRISATSSSEESSNKGQRQLTVSMSMSPNQGLQMPSSRAYGLADPSTTGQMSGARYGGSSNIASLTPGPGMQSPSSYQNNNYGLNMSSPPHGSPGLAPNQQNIMISPRNRGSPKIASHQFSPVAGVHSPMASSGNTGNHSFSSSSLSALQAISEGVGTSLLSTLSSPGPKLDNSPNMNITQPSKVSNQDSKSPLGFYCDQNPVESSMCQSNSRDHLSDKESKESSVEGAENQRGPLESKGHKKLLQLLTCSSDDRGHSSLTNSPLDSSCKESSVSVTSPSGVSSSTSGGVSSTSNMHGSLLQEKHRILHKLLQNGNSP
notes: domain: GAL4 DBD
B5: 35S-labeled hRARα (in vitro translated) (receptor, human, UniProt P10276 1-462, looked up)
chain: MASNSSSCPTPGGGHLNGYPVPPYAFFFPPMLGGLSPPGALTTLQHQLPVSGYSTPSPATIETQSSSSEEIVPSPPSPPPLPRIYKPCFVCQDKSSGYHYGVSACEGCKGFFRRSIQKNMVYTCHRDKNCIINKVTRNRCQYCRLQKCFEVGMSKESVRNDRNKKKKEVPKPECSESYTLTPEVGELIEKVRKAHQETFPALCQLGKYTTNNSSEQRVSLDIDLWDKFSELSTKCIIKTVEFAKQLPGFTTLTIADQITLLKAACLDILILRICTRYTPEQDTMTFSDGLTLNRTQMHNAGFGPLTDLVFAFANQLLPLEMDDAETGLLSAICLICGDRQDLEQPDRVDMLQEPLLEALKVYVRKRRPSRPHMFPKMLMKITDLRSISAKGAERVITLKMEIPGSMPPLIQEMLENSEGLDTLSGQPGGGGRDGGGLAPPPGSCSPSLSPSSNRSSPATHSP
notes: Made in reticulocyte lysate; also called 35S-RAR
B6: Gal4 DBD fusion of full-length human RARα (receptor, UniProt P04386 1-147, looked up)
chain: MKLLSSIEQACDICRLKKLKCSKEKPKCAKCLKNNWECRYSPKTKRSPLTRAHLTEVESRLERLEQLFLLIFPREDLDMILKMDSLQDIKALLTGLFVQDNVNKDAVTDRLASVETDMPLTLRQHRISATSSSEESSNKGQRQLTVSMASNSSSCPTPGGGHLNGYPVPPYAFFFPPMLGGLSPPGALTTLQHQLPVSGYSTPSPATIETQSSSSEEIVPSPPSPPPLPRIYKPCFVCQDKSSGYHYGVSACEGCKGFFRRSIQKNMVYTCHRDKNCIINKVTRNRCQYCRLQKCFEVGMSKESVRNDRNKKKKEVPKPECSESYTLTPEVGELIEKVRKAHQETFPALCQLGKYTTNNSSEQRVSLDIDLWDKFSELSTKCIIKTVEFAKQLPGFTTLTIADQITLLKAACLDILILRICTRYTPEQDTMTFSDGLTLNRTQMHNAGFGPLTDLVFAFANQLLPLEMDDAETGLLSAICLICGDRQDLEQPDRVDMLQEPLLEALKVYVRKRRPSRPHMFPKMLMKITDLRSISAKGAERVITLKMEIPGSMPPLIQEMLENSEGLDTLSGQPGGGGRDGGGLAPPPGSCSPSLSPSSNRSSPATHSP
notes: domain: Gal4 DBD;mature; also called full-length hRARα; pGBT-hRARα
B7: GST-RAC3-RID fusion (other)
chain: LESKGHKKLLQLLTCSSDDRGHSSLTNSPLDSSCKESSVSVTSPSGVSSSTSGGVSSTSNMHGSLLQEKHRILHKLLQNGNSPAEVAKITAQATGKDTSSITSCGDGNVVKQEQLSPKKKENNALLRYLLDRDDPSDALS
notes: Purified from DH5α cells, separated by SDS-PAGE, blotted, denatured and renatured on the filter; also called GST-RID fusion; not shown: glutathione S-transferase (GST) module
B8: SNF1 (other, UniProt P06782 1-633, looked up)
chain: MSSNNNTNTAPANANSSHHHHHHHHHHHHHGHGGSNSTLNNPKSSLADGAHIGNYQIVKTLGEGSFGKVKLAYHTTTGQKVALKIINKKVLAKSDMQGRIEREISYLRLLRHPHIIKLYDVIKSKDEIIMVIEYAGNELFDYIVQRDKMSEQEARRFFQQIISAVEYCHRHKIVHRDLKPENLLLDEHLNVKIADFGLSNIMTDGNFLKTSCGSPNYAAPEVISGKLYAGPEVDVWSCGVILYVMLCRRLPFDDESIPVLFKNISNGVYTLPKFLSPGAAGLIKRMLIVNPLNRISIHEIMQDDWFKVDLPEYLLPPDLKPHPEEENENNDSKKDGSSPDNDEIDDNLVNILSSTMGYEKDEIYESLESSEDTPAFNEIRDAYMLIKENKSLIKDMKANKSVSDELDTFLSQSPPTFQQQSKSHQKSQVDHETAKQHARRMASAITQQRTYHQSPFMDQYKEEDSTVSILPTSLPQIHRANMLAQGSPAASKISPLVTKKSKTRWHFGIRSRSYPLDVMGEIYIALKNLGAEWAKPSEEDLWTIKLRWKYDIGNKTNTNEKIPDLMKMVIQLFQIETNNYLVDFKFDGWESSYGDDTTVSNISEDEMSTFSAYPFLHLTTKLIMELAVNSQSN

Tests used:
[1] = molecular target: T1, RAC3.1 (yeast two-hybrid clone, RAC3 amino acids 401-1204) as Gal4 AD fusion (human, UniProt Q9Y6Q9 401-1204); assay: yeast two-hybrid, β-galactosidase ONPG assay, 1 µM ligand
T1 construct: Order of the fusion (Gal4 AD at the N-terminus) follows the vector; also called Gal4 AD fusion (RAC3.1)
T1 sequence: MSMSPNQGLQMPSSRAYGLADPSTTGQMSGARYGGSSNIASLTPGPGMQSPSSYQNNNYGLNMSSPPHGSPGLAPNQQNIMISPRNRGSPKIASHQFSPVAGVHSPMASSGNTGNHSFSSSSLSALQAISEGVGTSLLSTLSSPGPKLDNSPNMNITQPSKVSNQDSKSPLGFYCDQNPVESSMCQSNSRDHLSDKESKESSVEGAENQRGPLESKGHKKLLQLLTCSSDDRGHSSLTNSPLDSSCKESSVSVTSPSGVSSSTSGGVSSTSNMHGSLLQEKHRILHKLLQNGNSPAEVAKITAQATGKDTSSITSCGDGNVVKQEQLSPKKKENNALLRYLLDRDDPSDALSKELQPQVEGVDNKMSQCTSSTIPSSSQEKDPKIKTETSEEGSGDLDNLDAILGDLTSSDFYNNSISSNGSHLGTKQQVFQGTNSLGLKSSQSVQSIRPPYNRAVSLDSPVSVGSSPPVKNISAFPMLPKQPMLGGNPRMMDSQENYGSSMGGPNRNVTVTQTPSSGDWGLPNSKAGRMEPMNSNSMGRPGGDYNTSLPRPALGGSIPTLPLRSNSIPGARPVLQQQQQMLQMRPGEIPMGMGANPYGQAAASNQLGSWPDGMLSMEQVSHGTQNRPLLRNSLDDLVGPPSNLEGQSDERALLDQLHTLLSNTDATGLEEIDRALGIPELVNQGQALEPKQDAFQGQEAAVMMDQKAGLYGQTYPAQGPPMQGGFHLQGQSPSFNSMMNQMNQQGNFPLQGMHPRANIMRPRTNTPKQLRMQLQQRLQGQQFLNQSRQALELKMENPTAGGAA

[2] = molecular target: T2, VP16 AD-full-length hRARα fusion (human, UniProt P10276 1-462); assay: mammalian two-hybrid, luciferase reporter, with or without 1 µM atRA
T2 construct: mature; also called VP16-RAR
T2 sequence: B5 chain

[3] = molecular target: T1, RAC3.1 (yeast two-hybrid clone, RAC3 …); assay: yeast two-hybrid, with or without 1 µM ligand
[4] = molecular target: T3, full-length RAC3 (in vitro translated, 35S-labeled or unlabeled) (human, UniProt Q9Y6Q9 2-1424); assay: trimeric far-Western: unlabeled full-length RAC3 held on CBP fragments C and D, then 35S-labeled RAR, with ligand
T3 construct: Made in reticulocyte lysate; also called 35S-RAC3

[5] = molecular target: T1, RAC3.1 (yeast two-hybrid clone, RAC3 …); assay: yeast two-hybrid screen for RAR-interacting proteins, Gal4 DBD-full-length hRARα as bait, HIS3 and LacZ reporters
[6] = molecular target: B5; assay: far-Western, GST-RAC3-RID on the filter, 35S-labeled receptor, 1 µM all-trans retinoic acid
[7] = molecular target: T1, RAC3.1 (yeast two-hybrid clone, RAC3 …); assay: yeast two-hybrid, β-galactosidase liquid ONPG assay

T3 sequence (Q9Y6Q9 other isoform, or with tags, fused parts or gaps limits assumed): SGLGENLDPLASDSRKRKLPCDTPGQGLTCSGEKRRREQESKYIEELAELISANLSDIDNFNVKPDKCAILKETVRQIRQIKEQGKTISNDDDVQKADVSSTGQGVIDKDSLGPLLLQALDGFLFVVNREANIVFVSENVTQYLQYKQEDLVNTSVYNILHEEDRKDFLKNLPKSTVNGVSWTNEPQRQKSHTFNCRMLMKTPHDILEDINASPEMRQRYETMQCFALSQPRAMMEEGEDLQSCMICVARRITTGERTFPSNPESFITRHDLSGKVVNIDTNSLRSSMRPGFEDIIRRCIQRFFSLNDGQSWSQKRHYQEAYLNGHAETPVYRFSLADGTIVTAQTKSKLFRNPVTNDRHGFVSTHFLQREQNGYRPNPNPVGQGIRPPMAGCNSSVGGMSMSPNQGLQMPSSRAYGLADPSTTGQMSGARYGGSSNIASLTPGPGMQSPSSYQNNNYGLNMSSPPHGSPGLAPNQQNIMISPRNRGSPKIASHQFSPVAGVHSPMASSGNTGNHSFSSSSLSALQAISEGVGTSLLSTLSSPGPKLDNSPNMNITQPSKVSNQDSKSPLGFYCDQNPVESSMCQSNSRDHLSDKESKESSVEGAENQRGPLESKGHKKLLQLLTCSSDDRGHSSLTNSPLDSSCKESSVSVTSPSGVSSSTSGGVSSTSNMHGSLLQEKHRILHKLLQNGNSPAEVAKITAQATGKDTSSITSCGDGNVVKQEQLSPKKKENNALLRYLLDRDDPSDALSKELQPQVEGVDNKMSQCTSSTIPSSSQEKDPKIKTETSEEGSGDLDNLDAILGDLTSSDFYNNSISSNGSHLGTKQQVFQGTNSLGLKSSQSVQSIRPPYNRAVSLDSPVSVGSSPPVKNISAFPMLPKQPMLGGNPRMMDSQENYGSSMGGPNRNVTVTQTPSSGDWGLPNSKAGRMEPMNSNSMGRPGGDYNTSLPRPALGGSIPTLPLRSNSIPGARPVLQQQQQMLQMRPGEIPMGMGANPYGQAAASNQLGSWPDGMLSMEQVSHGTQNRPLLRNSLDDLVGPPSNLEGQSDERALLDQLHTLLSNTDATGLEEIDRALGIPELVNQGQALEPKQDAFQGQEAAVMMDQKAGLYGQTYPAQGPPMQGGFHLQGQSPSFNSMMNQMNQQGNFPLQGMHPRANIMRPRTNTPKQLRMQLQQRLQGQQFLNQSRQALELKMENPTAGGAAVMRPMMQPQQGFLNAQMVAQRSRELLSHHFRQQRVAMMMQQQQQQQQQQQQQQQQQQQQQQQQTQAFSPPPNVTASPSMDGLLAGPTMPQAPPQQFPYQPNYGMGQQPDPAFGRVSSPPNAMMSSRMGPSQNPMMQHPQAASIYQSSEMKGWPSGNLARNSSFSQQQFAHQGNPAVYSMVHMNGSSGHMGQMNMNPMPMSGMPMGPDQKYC

B1: binds [1].

B2: no binding [2].

B3: no binding [3].

B4: no binding [2].

B5: binds [4].

B6: binds [5].

B7: binds [6].

B8: no binding [7].
